Data on nine molecules can be found in US11629364B2, “Methods for synthesizing anticoagulant polysaccharides” (OPTIMVIA, LLC, priority 2019, dated 2023).

Assay [1] in a line: 3OST activity: 3-O sulfated products detected by LCMS after lyase digestion. The class given is biochemical. The following applies: for abundance of 3-O sulfation in product: relative to the commercial heparin standard; for 3OST activity: N,2,3,6-HS products by MS and/or NMR: procedures of Example 5 and/or Example 6, expected. On the procedure:
A study was conducted in accordance with embodiments of the present disclosure to confirm 3OST activity of enzymes comprising the amino acid sequence of SEQ ID NO: 24, SEQ ID NO: 26, or SEQ ID NO: 28 by detecting the presence of 3-O sulfated polysaccharide products as a result of their sulfotransfer reaction, using a reaction, using a similar LCMS procedure as in Example 3, except that the sulfo acceptor polysaccharide was commercially-available heparin (CAS code: 9041-08-1, available from Millipore Sigma). Even though the unmodified heparin contains ˜3.5% (w/w) of 3-O sulfated glucosamine residues, about ˜60% of the glucosamine residues are N,6-sulfated and are adjacent to a 2-O sulfated hexuronic acid residue, as in Formula X. Consequently, these N,6-sulfated glucosamine residues can still be 3-O sulfated.

Assay [2] is described as follows: NST activity: N-sulfated products detected by SAX-HPLC after lyase digestion. Format: biochemical. Conditions: procedures of Example 2; expected. On the procedure: A study was conducted in accordance with embodiments of the present disclosure to confirm NST activity of enzymes comprising the amino acid sequence of SEQ ID NO: 2, SEQ ID NO: 4, SEQ ID NO: 6, SEQ ID NO: 8, SEQ ID NO: 10, or SEQ ID NO: 12 by detecting the presence of N-sulfated polysaccharide products formed as a result of their sulfotransfer reaction, using mass spectrometry (MS). Each engineered enzyme was purified according to the procedure of Example 1. Sulfotransferase activity was monitored in 100 μL reactions containing 50 μM of enzyme. To each purified protein solution, 20 mg of an aryl sulfate compound (either PNS or NCS) was dissolved in 2 mL of reaction buffer (50 mM IVIES pH 7.0, 2 mM CaCl2)), added to the protein solution, and incubated at 37° C. for 10 min. 2.5 mL of 2 mg/mL solution of N-deacetylated heparosan was added to protein/donor solution and incubated overnight at 37° C. The N-deacetylated heparosan was synthesized according to the protocol described in Balagurunathan, K. et al (eds.) (2015), Glycosaminoglycans: Chemistry and Biology, Methods in Molecular Biology, vol. 1229, DOI 10.1007/978-1-4939-1714-3_2, ©Springer Science+Business Media, New York, pp. 11-19 (section 3.1). To purify the N-sulfated product, the incubated reaction mixture was centrifuged the following day at 5,000×g for 10 min. The filter was washed once with 2 mL water, and centrifuged again. The filtrate was added to a 1K MWCO Dialysis membrane, dialyzed for 2 days in Milli-Q water, with water changes at 1 h, 2 h, 8 h, 16 h, 32 h, and then lyophilized.
The lyophilized N-sulfated products from each reaction were subsequently digested with a mixture of three carbon-oxygen lyases comprising the amino acid sequences of SEQ ID NO: 30, SEQ ID NO: 31, and SEQ ID NO: 32, which catalyze the β-eliminative cleavage of heparosan-based polysaccharides. Such lyases are available from New England Biolabs, among other chemical and biological commercial entities. 1 μL of each lyase was incubated with 50 μg of the lyophilized sulfated polysaccharide product and the provided digestion buffer, and incubated over 24 hours according to the packaged instructions provided by New England Biolabs with each lyase. After digestion, the lyase enzymes were inactivated by heating to 100° C. for 5 minutes. Samples were centrifuged at 14,000 rpm for 30 minutes before introduction to a strong anion exchange, high performance liquid chromatography (SAX) analysis. SAX analysis was performed on a Dionex Ultimate 3000 LC system interface. Separation was carried out on a 4.6×250 mm Waters Spherisorb analytical column with 5.0 μm particle size at 45° C. Mobile phase solution A was 2.5 mM sodium phosphate, pH 3.5, while mobile phase solution B was 2.5 mM sodium phosphate, pH 3.5, and 1.2 M Sodium perchlorate. After each sample was loaded onto the column, mobile phase solutions were applied to the column at a ratio of 98% mobile phase solution A and 2% mobile phase solution B for five minutes at a flow rate of 1.4 mL/min. After five minutes, a linear gradient of increasing mobile phase solution B was applied until the ratio of mobile phase solution A to mobile phase solution B was 50:50.

Changes are numbered by the printed parent chain.

B1: SEQ ID NO: 28: engineered aryl sulfate-dependent 3OST enzyme, mutant of isoform 1 of the human 3OST enzyme (protein)
chain: MGTASNGSTQQLPQTIIIGVGHGGTRALLEMLSLHPDVAAAENEVHFFDWEEHYSQGLGWYLTQMPFSSPHQLTVEKTHSYFTSPKVPERIHSMNPTIRLLLILRDPSERVLSLGTHLLYVHLQKHKPYPPIEDLLMRDGRLNLDYTGLNRSLYHAHMLNWLRFFPLGHIHIVDGDRLIRDPFPEIQKVERFLKLSPQINASNFYFNKTKGFYCLRDSGKDRCLHESKGRAHPQVDPKLLDKLHEYFHEPNKKFFKLVGRTFDWH
modifications: Amino acid sequence encoding for engineered arylsulfate-dependent 3-O-sulfotransferase variant 3
notes: engineered aryl sulfate-dependent 3OST enzyme, mutant of isoform 1 of the human 3OST enzyme
In the case of B1, the “3OST activity with PNS” value in assay [1] (PNS as aryl sulfate compound) is recorded as “not active”. For the same molecule, in assay [1], the “abundance of 3-O sulfation in product” value is recorded as “higher abundance of 3-O sulfation”.

B2: SEQ ID NO: 24: engineered aryl sulfate-dependent 3OST enzyme, mutant of isoform 1 of the human 3OST enzyme (protein)
chain: B1 chain with L114A, G115Y, L118M, V121N, T147V
modifications: Amino acid sequence encoding for engineered arylsulfate-dependent 3-O-sulfotransferase variant 1
notes: as for B1
As for B2, in assay [1], the “abundance of 3-O sulfation in product” value was “higher abundance of 3-O sulfation”.

B3: SEQ ID NO: 56: full-length mutant of isoform 5 of the mouse 3OST enzyme, SEQ ID NO: 24 mutations (protein)
chain: MLFKQQVWLRQKLLVLGSLAVGSLLYLVARVGSLDRLQPICPVESRFGGAHNQAELPLRALQFKRGLLHEFRKGNSSKEQVHLHDLVQQLPKAIIIGVGHGGTRALLEMLNLHPAVVKASQEIHFFDNDENYAKGIEWYRKKMPFSYPQQITIEKSHSYFITEEVPERIYKMNSSIKLLIIVREPTTRAISAYTHMLEGKERKNKTYYKFEKLAIDPNTCEVNTKYVGVRTSIYTKHLERWLKYFPIEQFHIVDGDRLITEPLPELQLVEKFLNLPPRISQYNLYFNATRGFYCLRFNIIFNKCLAGSKGRIHPEVDPSVITKLRKFFHPFNQKFYQITGRTLNWP
modifications: Amino acid sequence encoding for engineered arylsulfate-dependent 3-O-sulfotransferase variant 8
Regarding B3, in assay [1], the “3OST activity: N,2,3,6-HS products by MS and/or NMR” value (from here on “3OST activity: N,2,3,6-HS products”) is “confirm the presence of N,2,3,6-HS products”.

B4: SEQ ID NO: 57: full-length mutant of isoform 5 of the mouse 3OST enzyme, SEQ ID NO: 26 mutations (protein)
chain: B3 chain with V227T
modifications: Amino acid sequence encoding for engineered arylsulfate-dependent 3-O-sulfotransferase variant 9
Regarding B4, the “3OST activity: N,2,3,6-HS products” value in assay [1] is “confirm the presence of N,2,3,6-HS products”.

B5: SEQ ID NO: 58: full-length mutant of isoform 5 of the mouse 3OST enzyme, SEQ ID NO: 28 mutations (protein)
chain: B3 chain with A192L, Y193G, M196L, G199V, V227T
modifications: Amino acid sequence encoding for engineered arylsulfate-dependent 3-O-sulfotransferase variant 10
As to B5, the “3OST activity: N,2,3,6-HS products” value in assay [1] is given as “confirm the presence of N,2,3,6-HS products”.

B6: SEQ ID NO: 52: mutant of isoform 1 of the pig 3OST enzyme, SEQ ID NO: 24 mutations (protein)
chain: MGVAPNGSAQQLPQTIIIGVGHGGTRALLEMLSLHPDVAAAENEVHFFDWEEHYSHGLGWYLSQMPFSWPHQLTVEKTHSYFTSPKVPERVYSMNPSIRLLLILRDPSERVLSLGTHLFYVHMQKHKPYPSIEEFLVRDGRLNVDYTGLNRSLYHVHMQNWLRFFPLRHIHIVDGDRLIRDPFPEIQKVERFLKLSPQINASNFYFNKTKGFYCLRDSGRDRCLHESKGRAHPQVDPKLLNKLHEYFHEPNKKFFELVGRTFDWH
modifications: Amino acid sequence encoding for engineered arylsulfate-dependent 3-O-sulfotransferase variant 5
As for B6, the “3OST activity: N,2,3,6-HS products” value in assay [1] was “confirm the presence of N,2,3,6-HS products”.

B7: SEQ ID NO: 54: mutant of isoform 1 of the pig 3OST enzyme, SEQ ID NO: 28 mutations (protein)
chain: B6 chain
modifications: Amino acid sequence encoding for engineered arylsulfate-dependent 3-O-sulfotransferase variant 7
B7: in assay [1], the “3OST activity: N,2,3,6-HS products” value was “confirm the presence of N,2,3,6-HS products”.

B8: SEQ ID NO: 53: mutant of isoform 1 of the pig 3OST enzyme, SEQ ID NO: 26 mutations (protein)
chain: B6 chain with L114A, G115Y, L118M, V121N
modifications: Amino acid sequence encoding for engineered arylsulfate-dependent 3-O-sulfotransferase variant 6
As to B8, in assay [1], the “3OST activity: N,2,3,6-HS products” value is listed as “confirm the presence of N,2,3,6-HS products”.

B9: SEQ ID NO: 40: mutant of N-sulfotransferase domain of pig NDST carrying the SEQ ID NO: 12 mutations (protein)
chain: MSEEKDPLWQDPCEDKRHKDIWSKEKTCDRFPKLLIIGPAKTGAWLLHHFLGLHPDLSSNYPSSETHSSIQFFNGHNYHKGIDWYMDFFPIPSNTTSDFYFETSANYFDSDVAPRRAAALLPKAKVLTILINPADRAYSWYQHQRAHDDPAALRYTFHEVITAGPDASLKLRALQNRCLVPGWYATHLERWLGAFHANQILVLDGKLLRTEPARVMDTVQKFLGVTNTIDYHKTLAFDPKKGFWCQLLEGGKTKCAHRGLGRKYPDMDPDSRAFLRDYYRDHNIELSKLLYKMGQTLPTWLREELQNTR
modifications: Amino acid sequence encoding for engineered arylsulfate-dependent N-sulfotransferase variant 14
For the molecule B9, the “NST activity: N-sulfated products by SAX” value in assay [2] is reported as “confirm the presence of N-sulfated polysaccharide products”.
